Assay results from article PMC8126939, “The TBC1D31/praja2 complex controls primary ciliogenesis through PKA‐directed OFD1 ubiquitylation” (The EMBO Journal, 2021).
Changes are numbered by the printed parent chain. In names and notes the source's numbering stands. One block for each binder: values may come before it.

Assays:
GST-praja2_(550–610) = target: T1, GST-praja2_(550–610) (human, UniProt O43164 550-610, fluorescent dye on primary amines (NHS-ester labelling)); assay: MST; Monolith NT 115; GST-praja2 fragments labelled with NHS-ester dye, TBC1D31 peptides titrated (16-point 1:1 dilution); 25°C, 20 mM NaP, 200 mM NaCl, 1 mM DTT, 0.05% Tween-20, pH 7.4; settings: both partners purified
T1 construct: praja2 (PJA2), human, residues 550-610; The results call P1-P3 synthetic peptides; the methods describe recombinant GST fusions; also called P2; source: recombinant, purified (GST Trap, Superdex 75 gel filtration)
T1 sequence (looked up): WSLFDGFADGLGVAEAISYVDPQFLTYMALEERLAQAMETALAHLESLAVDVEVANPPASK

GST-praja2_(530–570) [1] = target: T2, GST-praja2_(530–570) (human, UniProt O43164 530-570, fluorescent dye on primary amines (NHS-ester labelling)); assay: as above; settings: both partners purified
T2 construct: praja2 (PJA2), human, residues 530-570; The results call P1-P3 synthetic peptides; the methods describe recombinant GST fusions; also called P1; source: recombinant, purified (GST Trap, Superdex 75 gel filtration)
T2 chain (looked up): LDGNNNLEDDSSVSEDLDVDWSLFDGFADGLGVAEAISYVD

GST-praja2_(530–570) [2] = target: T3, GST-praja2_(530–570) (human, UniProt O43164 530-570, fluorescent dye on primary amines (NHS-ester labelling)); assay: MST
T3 chain: T2 chain (looked up)

Kd (GST-praja2_(550–610)): 80 µM
Kd (GST-praja2_(530–570) [1]): 37 µM
B1: peptide of the C-terminus segment of TBC1D31 (peptide)
peptide: WDTTGQNLIKKVRNLRQRLTARARHRCQTPHLLAA
notes: TBC1D31, human, C-terminus segment; also called WA35 TBC1D31; wild-type TBC1D31 peptide; source: synthetic peptide (bought: Shanghai Apeptide Co., Ltd)

binding result (GST-praja2_(530–570) [1]): binds
Kd (GST-praja2_(530–570) [2]): ~65 µM
B2: double AA mutant TBC1D31 peptide (peptide)
peptide: B1 peptide with R13A, R16A
notes: TBC1D31, human, C-terminus segment peptide with R948A and R951A; also called TBC1D31AA; R948A-R951A; source: synthetic peptide (bought: Shanghai Apeptide Co., Ltd)
